In patent publication US8173596B2, “Prouroguanylin, and synthetic analogs or proteolytic cleavage products derived from it, as therapeutic and diagnostic agents for diseases involving salt and/or fluid homeostasis” (The University of North Carolina at Chapel Hill, priority 2004, dated 2012):
“Also recorded” adds a separate entry of the source.

Columns and labels:
[1] = target: T1, GC-C (Homo sapiens, UniProt P25092); details: other reports (Hamra et al. 1996); cited from earlier work
T1 construct: endogenous in cells; host or cells: T84 cells

[2] = tested on: anesthetized rats; test: Diuresis and natriuresis induced by infused native proUGn in anesthetized rats; assay type: in vivo, rat
Procedure: (§1) Experiments were performed with 200-250 g male Sprague Dawley rats (Charles River Laboratories, Wilmington, Mass., United States of America). Rat test diets were obtained from a commercial supplier (Harlan Teklad, Madison, Wis., United States of America). For some experiments, anephric animals were prepared by surgical acute ligation of the renal pedicles. As necessary, animals were anesthetized with Nembutal (60 mg/kg body weight ip).
Na, K, and fluid excretion: Na and K concentrations are analyzed on an IF model 943 flame photometer (Instrumentation Laboratory Company, Lexington, Mass., United States of America). Urine is collected from ureteric canulae or by the use of metabolic cages. Urine volume is determined gravimetrically.
Native proUGn is purified from rat small intestine. Animals are sacrificed by anesthetic overdose, and approximately 20 cm of proximal small intestine is removed. The tissue is cut longitudinally, rinsed with saline, and the mucosal layer is isolated by scraping with a microscope slide. Scraped material is snap-frozen on a metal plate chilled to −78.5° C., then homogenized in 50 mM HEPES, pH 7.4, containing protease inhibitor. The homogenate is cleared by centrifugation at 50,000×g, and the supernate is fractionated sequentially by HPLC on a MonoQ anion exchange column and a VYDAC C-18 reverse-phase column. The HPLC chromatogram of this second chromatography step is shown in FIG. 10a, with a Western blot of the individual HPLC fractions shown in the inset, confirming the presence of proUGn. The purified material was dried to remove the HPLC solvents and resuspended in physiological saline. Recovery is measured by quantitative proUGn immunoassay.
Native proUGn is infused for 60 min into a group of 5 anesthetized rats, the standard infusion containing approximately 180-pmol peptide. Given an estimated rat plasma volume of 10 mL, the infusion rate was approximately […]. Blood pressure, urine production, and sodium excretion were monitored for approximately 40 minutes prior to the infusion, during the infusion, and for approximately 50 minutes after the infusion to measure the effect of the proUGn on diuresis and natriuresis. For comparison, a control group of five rats was infused with regular saline, one rat was infused with a solution of proUGn that had been neutralized by incubation with antibodies 6910 and 6912, and one rat was infused with a solution containing STa at 5 μg/kg/hr.

[3] = Kidney clearance and tissue fate of infused or bolus-injected 35S-proUGn; assay type: in vivo, rat
Procedure: as §1
Radioactive proUGn was prepared by coupled in vitro transcription/translation in the presence of ^35S-Cys and ^35S-Met from a cDNA template that encoded full-length proUGn (minus the signal peptide).
A solution containing radioactively-labeled r-proUGn was infused by iv into anesthetized rats for 60 min. The concentration of radioactivity in the plasma and the urine was measured via scintillation counting at timepoints throughout the infusion. […] At the end of the 60 min infusion, tissue samples were collected from the brain, thymus, lung, small intestine, skeletal muscle, spleen, heart, kidney, and liver and assayed for radioactivity by scintillation counting.
To measure the rate of kidney clearance of proUGn, plasma levels of ^35S-proUGn were monitored following bolus injection of the radiolabelled propeptide. Bolus injections (about 10^6 cpm) were given to groups of control (i.e., normal) rats and to anephric rats. At various timepoints after the injection, blood samples were removed and fractionated by HPLC. Radioactivity in each HPLC fraction was measured in a scintillation counter. […] Taken together, the results from these experiments indicate that the kidney appears to be the major route of clearance for proUGn.

[4] = HPLC analysis of proUGn metabolites in plasma and urine; assay type: in vivo, rat
Procedure: Unless otherwise stated, HPLC conditions for the detection and identification of proUGn and related peptides are as follows: Vydac 218TP™ C-18 reverse-phase column (Grace Vydac, Hesperica, Calif., United States of America); equilibration of the column with H2O with 0.1% TFA for 25 minutes, followed by a 30 minutes gradient from 0% acetonitrile (with 0.1% TFA) to 50% acetonitrile (with 0.1% TFA), 5 min wash with 100% acetonitrile (0.1% TFA).
Plasma samples were taken 2, 5, and 10 min after bolus injection of ^35S-proUGn (about 10^6 cpm) into the carotid artery (n=2 for each timepoint). Urine was collected for 30 min at the end of a 60 min arterial infusion of ^35S-proUGn (n=7). The cpm/μL in the infused material was approximately 100 times lower than the cpm/μL in the solution used for the bolus injection. Plasma and urine samples were applied to the HPLC column and eluted, with the radioactivity in each fraction measured in a scintillation counter.

[5] = steady iv infusion over 60 min, FIG. 8a

T1 sequence (P25092 24-1073): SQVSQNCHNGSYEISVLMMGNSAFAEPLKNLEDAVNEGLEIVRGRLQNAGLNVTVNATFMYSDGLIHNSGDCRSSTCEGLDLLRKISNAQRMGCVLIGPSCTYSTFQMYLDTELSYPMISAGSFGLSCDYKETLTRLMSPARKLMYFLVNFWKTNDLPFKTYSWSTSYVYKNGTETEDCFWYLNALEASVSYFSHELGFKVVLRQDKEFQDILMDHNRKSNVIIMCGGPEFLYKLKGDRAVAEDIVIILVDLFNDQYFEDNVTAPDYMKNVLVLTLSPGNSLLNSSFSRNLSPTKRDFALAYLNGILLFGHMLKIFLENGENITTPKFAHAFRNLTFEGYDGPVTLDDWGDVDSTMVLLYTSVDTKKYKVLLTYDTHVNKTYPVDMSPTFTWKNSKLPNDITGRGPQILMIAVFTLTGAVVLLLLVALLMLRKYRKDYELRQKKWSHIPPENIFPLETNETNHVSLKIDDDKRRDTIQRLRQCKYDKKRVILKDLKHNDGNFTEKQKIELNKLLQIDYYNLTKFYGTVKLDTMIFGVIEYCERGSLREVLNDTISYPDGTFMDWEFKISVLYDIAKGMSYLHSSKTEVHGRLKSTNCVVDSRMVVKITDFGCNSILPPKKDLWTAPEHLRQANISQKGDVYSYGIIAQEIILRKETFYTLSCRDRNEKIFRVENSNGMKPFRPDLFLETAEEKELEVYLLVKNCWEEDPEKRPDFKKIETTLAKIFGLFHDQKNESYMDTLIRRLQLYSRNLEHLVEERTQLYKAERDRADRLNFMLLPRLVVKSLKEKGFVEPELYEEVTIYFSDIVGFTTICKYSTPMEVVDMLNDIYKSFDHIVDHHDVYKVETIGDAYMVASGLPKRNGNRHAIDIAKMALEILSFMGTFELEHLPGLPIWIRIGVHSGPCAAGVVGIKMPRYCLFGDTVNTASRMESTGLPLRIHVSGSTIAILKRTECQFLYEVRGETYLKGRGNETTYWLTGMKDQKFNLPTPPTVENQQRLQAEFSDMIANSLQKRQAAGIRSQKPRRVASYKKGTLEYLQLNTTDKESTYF

Molecule | activation of GC-C [1] | sodium excretion following proUGn infusion ([2]; 60 min infusion of approximately 180 pmol peptide, after infusion) | sodium excretion ([2]; 60 min infusion, FIG. 10c) | urine flow ([2]; 60 min infusion, anesthetized rats, FIG. 10b) | onset of the response to proUGn ([2]; after beginning infusion) | duration of the response to proUGn ([2]; after terminating the infusion) | sodium excretion before proUGn infusion ([2]; baseline of the infused animals) | natriuretic response compared with responses reported in the literature for UGn18 ([2]; comparison with literature UGn18 infusion) | increase in urine production ([2]; infusing exogenous proUGn into the bloodstream) | clearance from plasma, control versus anephric rats ([3]; bolus injection about 10^6 cpm, FIG. 8c) | tissue distribution of radioactivity ([3]; end of 60 min infusion, brain, thymus, lung, small intestine, skeletal muscle, spleen, heart, kidney, liver, FIG. 8b) | plasma level of radioactivity [3, 5] | urine level of radioactivity [3, 5] | integrity in plasma (HPLC of radiolabelled species) ([4]; plasma 2, 5, 10 min after bolus injection, FIG. 9a) | radioactive species in urine (HPLC) ([4]; urine collected 30 min at end of 60 min infusion, FIG. 9b)
proguanylin (protein, listed as Rattus norvegicus, propeptide of Gn15) MNAWLLSVLCLLGALAVLVEGVTVQDGDLSFPLESVKQLKHLREVQEPTLMSHKKFALRLPKPVAPELCSQSAFPEALRPLCEKPNAEEILQRLEAIAQDPNTCEICAYAACTGC | inability | – | – | – | – | – | – | – | – | – | – | – | – | – | –
prouroguanylin (protein, listed as Rattus norvegicus, propeptide of UGn18) VYIKYHGFQVQLESVKKLNELEEKQMSDPQQQKSGLLPDVCYNPALPLDLQPVCASQEAASTFKALRTIATDECELCINVACTGC | inability | 3200 nmol/min | mirrored the increase in urine flow rate | increase in urine flow | 20 to 40 min | more than several hours | 60 nmol/min | many times greater | ≤ 50 fold | – | – | – | – | – | –
^35S-proUGn: proUGn prepared by coupled in vitro transcription/translation in the presence of 35S-Cys and 35S-Met (protein) VYIKYHGFQVQLESVKKLNELEEKQMSDPQQQKSGLLPDVCYNPALPLDLQPVCASQEAASTFKALRTIATDECELCINVACTGC | – | – | – | – | – | – | – | – | – | cleared more quickly in the control animals; also recorded: cleared rapidly from the plasma of a normal animal | only the kidney samples contained significant levels of radioactivity; also recorded: specific activity of labeling in the kidney is greater than in any other tissue | remained steady; also recorded: stable plasma level of radioactivity | increased dramatically | appears to remain intact in plasma | at least two, and possibly three, proUGn-related products
